Measured values taken from publication PMC5660122 (2017).

B1: rat serum albumin (natural protein)
chain: EAHKSEIAHRFKDLGEQHFKGLVLIAFSQYLQKCPYEEHIKLVQEVTDFAKTCVADENAENCDKSIHTLFGDKLCAIPKLRDNYGELADCCAKQEPERNECFLQHKDDNPNLPPFQRPEAEAMCTSFQENPTSFLGHYLHEVARRHPYFYAPELLYYAEKYNEVLTQCCTESDKAACLTPKLDAVKEKALVAAVRQRMKCSSMQRFGERAFKAWAVARMSQRFPNAEFAEITKLATDVTKINKECCHGDLLECADDRAELAKYMCENQATISSKLQACCDKPVLQKSQCLAEIEHDNIPADLPSIAADFVEDKEVCKNYAEAKDVFLGTFLYEYSRRHPDYSVSLLLRLAKKYEATLEKCCAEGDPPACYGTVLAEFQPLVEEPKNLVKTNCELYEKLGEYGFQNAVLVRYTQKAPQVSTPTLVEAARNLGRVGTKCCTLPEAQRLPCVEDYLSAILNRLCVLHEKTPVSEKVTKCCSGSLVERRPCFSALTVDETYVPKEFKAETFTFHSDICTLPDKEKQIKKQTALAELVKHKPKATEDQLKTVMGDFAQFVDKCCKAADKDNCFATEGPNLVARSKEALA
B2: cynomolgus serum albumin (natural protein)
chain: DTHKSEVAHRFKDLGEEHFKGLVLVAFSQYLQQCPFEEHVKLVNEVTEFAKTCVADESAENCDKSLHTLFGDKLCTVATLRETYGEMADCCAKQEPERNECFLQHKDDNPNLPPLVRPEVDVMCTAFHDNEATFLKKYLYEVARRHPYFYAPELLFFAARYKAAFAECCQAADKAACLLPKLDELRDEGKASSAKQRLKCASLQKFGDRAFKAWAVARLSQKFPKAEFAEVSKLVTDLTKVHTECCHGDLLECADDRADLAKYMCENQDSISSKLKECCDKPLLEKSHCLAEVENDEMPADLPSLAADYVESKDVCKNYAEAKDVFLGMFLYEYARRHPDYSVMLLLRLAKAYEATLEKCCAAADPHECYAKVFDEFQPLVEEPQNLVKQNCELFEQLGEYKFQNALLVRYTKKVPQVSTPTLVEVSRNLGKVGAKCCKLPEAKRMPCAEDYLSVVLNRLCVLHEKTPVSEKVTKCCTESLVNRRPCFSALELDEAYVPKAFNAETFTFHADMCTLSEKEKQVKKQTALVELVKHKPKATKEQLKGVMDNFAAFVEKCCKADDKEACFAEEGPKFVAASQAALA

How the values were obtained:
Assay in all cases: SPR
2V-E06-2V = 2V-E06-2V (Squalus acanthias | dogfish)
2V-BB11-2V = 2V-BB11-2V (Squalus acanthias)
2V-BA11-2V = 2V-BA11-2V (Squalus acanthias)
humanized E06 v2.4-2G = target: humanized E06 v2.4-2G
humanized E06 BA11 = target: humanized E06 BA11
humanized E06 BB11 = target: humanized E06 BB11
2V-BB10-2V = 2V-BB10-2V (Squalus acanthias)

| Kd (2V-E06-2V) | koff (2V-E06-2V) | Kd (2V-BB11-2V) | koff (2V-BB11-2V) | Kd (2V-BA11-2V) | koff (2V-BA11-2V) | Kd (humanized E06 v2.4-2G) | Kd (humanized E06 BA11) | Kd (humanized E06 BB11) | Kd (2V-BB10-2V) | koff (2V-BB10-2V) | Binder |
| --- | --- | --- | --- | --- | --- | --- | --- | --- | --- | --- | --- |
| 7.6 nM | 0.00075 s⁻¹ | 1.49 nM | 0.0035 s⁻¹ | 18.7 nM | 0.00054 s⁻¹ | 7.64 nM | 130 nM | 8.29 nM |  |  | B1 |
| 0.76 nM | 0.000126 s⁻¹ | 0.64 nM | 0.000472 s⁻¹ | 7.95 nM | 9.48e-05 s⁻¹ |  |  |  | 5.5 nM | 0.00439 s⁻¹ | B2 |
